Results on three molecules are retold here after article PMC8983717, “Cryo-EM structures of a LptDE transporter in complex with Pro-macrobodies offer insight into lipopolysaccharide translocation” (Nature Communications, 2022).

Series [1] concerns the molecule itself. Kind of series: cryo-EM structure; subset of 80,140 dimeric particles of the NgLptDE-PMb51-PMb21 sample; map at 5.27 Å; pseudo-2-fold symmetry.
Series [2] deals with T1, N. gonorrhoeae LptD (1-801)-3C-His10 and LptE (1-159)-AVI complex, biotinylated (Neisseria gonorrhoeae ATCC 700825 / FA …, UniProt Q5F651;Q5F9V6, biotin on the AVI tag (in vitro, BirA)).
T1 construct: signal peptide in the construct; LptD of N. gonorrhoeae (Zopf) Trevisan (ATCC 700825), residues 1-801; LptE of N. gonorrhoeae (Zopf) Trevisan (ATCC 700825), residues 1-159; Used for sybody generation and GCI; also called biotinylated NgLptDE; Biotinylated protein; source: E. coli SF100, purified as the NgLptDE complex, biotinylated in vitro with BirA, second SEC; monomeric peak; not shown: AVI, …
Nature of the series: grating-coupled interferometry (GCI); biotinylated NgLptDE immobilised on a 4PCP-S (streptavidin) chip at 600-700 pg/mm2; 20 °C; Tris 25 mM pH 7.5, NaCl 300 mM, DDM 0.1%; 8 concentrations (2-fold dilutions) in duplicate; 1:1 model. The conditions noted are these: both partners purified.

Broadly, the stoichiometry N is a count of units in the complex or per binding partner.

B1: Neisseria gonorrhoeae LptDE complex (NgLptDE), wild-type full-length LptD and LptE with a C-terminal hexa-histidine tag (complex, N. gonorrhoeae)
chain 1: ADTVAAEEADGRVAEGGAQGASESAQASDLTLGSTCLFCSNESGSPERTEAAVQGSGEASVPEDYTRIVADRMEGQSKVKVRAEGSVIIERDGAVLNTDWADYDQSGDTVTVGDRFALQQDGTLIRGETLTYNLDQQTGEAHNVRMETEQGGRRLQSVSRTAEMLGEGRYKLTETQFNTCSAGDAGWYVKAASVEADRGKGIGVAKHAAFVFGGVPLFYTPWADFPLDGNRKSGLLVPSVSAGSDGVSLSVPYYFNLAPNFDATFAPGIIGERGATFDGQIRYLRPDYSGQTDLTWLPHDKKSGRNNRYQAKWQHRHDISDTLQAGVDFNQVSDSGYYRDFYGGEEIAGNVNLNRRVWLDYGGRAAGGSLNAGLSVQKYQTLANQSGYKDEPYAIMPRLSADWHKNAGRAQIGVSAQFTRFSHDGRQDGSRLVVYPGIKWDFSNSWGYVRPKLGLHATYYSLDSFGGKASRSVGRVLPVVNIDGGTTFERNTRLFGGGVVQTIEPRLFYNYIPAKSQNDLPNFDSSESSFGYGQLFRENLYYGNDRINAANSLSTAVQSRILDGATGEERFRAGIGQKFYFKDDAVMLDGSVGKNPRSRSDWVAFASGGIGGRFTLDSSIHYNQNDKRAEHYAVGAGYRPAPGKVLNARYKYGRNEKIYLQADGSYFYDKLSQLDLSAQWPLTRNLSAVVRYNYGFEAKKPIEMLAGAEYKSSCGCWGAGVYAQRYVTGENTYKNAVFFSLQLKDLSSVGRNPAGRMDVAVPGYIPAHSLSAGRNKRP
chain 2: CGFHLKGADGISPPLTYRSWHIEGGQALQFPLETALYQASGRVDDAAGAQMTLRIDSVSQNKETYTVTRAAVINEYLLILTVEAQVLKRGEPVGKPMTVSVRRILDYADNEILGKQEEEETLWAEMRQDVAEQIVRRLTFLKAE
notes: LptD of N. gonorrhoeae, wild-type full length, UniProt Q5F651; LptE of N. gonorrhoeae, UniProt Q5F9V6; it is put on LptE here; Monomeric and dimeric SEC peaks were kept apart; the monomer was used for the complexes with PMbs; also called LptDE transporter; source: E. coli SF100, pBAD22A, purified from the outer-membrane fraction (LDAO, NiNTA, exchange to LMNG, SEC); also on E. coli SF100 cells …
Take B1: the “stoichiometry N” value in series [1] is 2.

B2: N. gonorrhoeae LptD (NgLptD), as the chain of the purified NgLptDE complex (natural protein, UniProt Q5F651 24-801, looked up)
chain: B1 chain 1
notes: LptD of N. gonorrhoeae, wild-type full length, UniProt Q5F651; The LptD chain of m1; source: E. coli SF100, co-expressed with LptE, purified as the NgLptDE complex (NiNTA, SEC, LMNG)
Consider B2, for which the binding result in series [1] is reported as “binds”.

B3: sybody 51 (Sb51), synthetic nanobody against NgLptDE (VHH)
VHH: QVQLVESGGGSVQAGGSLRLSCAASGSISSITYLGWFRQAPGKEREGVAALATYYGHTYYADSVKGRFTVSLDNAKNTVYLQMNSLKPEDTALYYCAAAYSGIWTPLGVWATYEYWGQGTQVTV
notes: as the sybody moiety of m6 (PMb51), PDB 7OMM, up to the conserved C-terminus VTV
For the molecule B3, the binding result in series [2] was “binds”.
